According to US20170145069A1 (Novo Nordisk, published 2017):
*1 amine or outer side, *2 acyl side, *3 side chain or, on linkers, in order; H or OH if unused. Where no end group is shown, it is not given here. Side-chain parts run from the residue outwards. [ ]: non-standard residue; d: D form. The star is where a group is joined. Dodecanoyl(12-OPh(4-COOH)) = O=C(O)c1ccc(OCCCCCCCCCCCC(=O)*)cc1; Undecanoyl(11-OPh(4-COOH)) = O=C(O)c1ccc(OCCCCCCCCCCC(=O)*)cc1; Decanoyl(10-(4-HOOC-PhO)) = O=C(O)c1ccc(OCCCCCCCCCC(=O)*)cc1; γGlu = O=C(O)[C@H](CCC(=O)[*:2])N[*:1]; εLys = N[C@@H](CCCCN[*:1])C(=O)[*:2]; 13‑carboxytridecanoyl = C14 diacid; AEEA = NCCOCCOCC(=O)O; Aib = CC(C)(N)C(=O)O

Tests used:
human GLP-1 receptor [1] = biological target: T1, human GLP-1 receptor (human, UniProt P43220 24-463); assay: cell-based or functional assay
human GLP-1 receptor [2] = biological target: T1, human GLP-1 receptor; assay: SPA, displacement of 125I-GLP-1(7-36)NH2, BHK membranes, 0.001% HSA
Protocol: Test compounds, membranes, SPA-particles and [¹²⁵I] ]-GLP-1(7-36)NH₂ were diluted in assay buffer. 50 ul (micro liter) buffer (“low albumin” experiment containing 0.001% HSA) was added to Optiplate, and 25 ul of test compounds were added. 5-10 μg membrane protein/sample was added (50 μl) corresponding to 0.1-0.2 mg protein/ml (to be preferably optimised for each membrane preparation). SPA-particles (Wheatgerm agglutinin SPA beads, Perkin Elmer, #RPNQ0001) were added in an amount of 0.5 mg/well (50 μl). The incubation was started with [¹²⁵I]-GLP-1]-(7-36)NH₂ (final concentration 0.06 nM corresponding to 49.880 DPM, 25 μl). The plates were sealed with PlateSealer and incubated for 120 minutes at 30° C. while shaking. The plates were centrifuged (1500 rpm, 10 min) and counted in Topcounter.
The IC₅₀ value was read from the curve as the concentration which displaces 50% of ¹²⁵I-GLP-1 from the receptor.

human GLP-1 receptor [3] = biological target: T1, human GLP-1 receptor; assay: cell-based or functional assay; remark: listed apart in the source

Row | Binder | In vitro potency (CRE-luciferase) low albumin EC50 (human GLP-1 receptor [1]) [pM] | IC50 (human GLP-1 receptor [2]) [pM] | In vitro potency (AlphaScreen cAMP; membranes) EC50 (human GLP-1 receptor [3]) [pM]
1 | H[Aib]EGTFTSDVSK([Gly-Ser-Ser-Gly-Ser-Ser-γGlu-Undecanoyl(11-OPh(4-COOH))])YLEGQAAK([Gly-Ser-Ser-Gly-Ser-Ser-γGlu-Undecanoyl(11-OPh(4-COOH))])EFIAWLVQGRG | 5.6 | 370 | –
2 | H[Aib]EGTFTSDVSK([εLys-Gly-Ser-Ser-Gly-Ser-Ser-γGlu-Undecanoyl(11-OPh(4-COOH))])YLEGQAAK([εLys-Gly-Ser-Ser-Gly-Ser-Ser-γGlu-Undecanoyl(11-OPh(4-COOH))])EFIAWLVQGRG | – | 480 | 89
3 | HAEGTFTSDVSSYLEGQAAK([Gly-Ser-Ser-Gly-Ser-Ser-γGlu-Decanoyl(10-(4-HOOC-PhO))])EFIAWLVRGRK([Gly-Ser-Ser-Gly-Ser-Ser-γGlu-Decanoyl(10-(4-HOOC-PhO))])E | 8 | 580 | 48
4 | HAEGTFTSDVSSYLEGQAAK([AEEA-AEEA-γGlu-Decanoyl(10-(4-HOOC-PhO))])EFIAHLVQGRK([AEEA-AEEA-γGlu-Decanoyl(10-(4-HOOC-PhO))]) [Comparative compound of Example 3a: Compound of Example 33, Chem. 52, in WO 2011/080103] | 124 | 51500 | 506
5 | HXEGTFTSDVSSYLEGQAAKEFIAHLVQGRGK (Aib at 8; eps-amino of Lys26 and of the added C-terminal Lys (position 38) each acylated with 10-(4-carboxyphenoxy)decanoyl-gGlu-Ser-Ser-Gly-Ser-Ser-Gly) | – | 12800 | 381
6 | H[Aib]EGTFTSDVSK([Ala-Ser-Ser-Ala-Ser-Ser-γGlu-Undecanoyl(11-OPh(4-COOH))])YLEGQAAK([Ala-Ser-Ser-Ala-Ser-Ser-γGlu-Undecanoyl(11-OPh(4-COOH))])EFIAWLVQGRG | 15 | 500 | 183
7 | H[Aib]EGTFTSDVSK([Gly-Ser-Ser-Gly-Ser-Ser-γGlu-Dodecanoyl(12-OPh(4-COOH))])YLEGQAAK([Gly-Ser-Ser-Gly-Ser-Ser-γGlu-Dodecanoyl(12-OPh(4-COOH))])EFIAWLVQGRG | 9.6 | 840 | 314
8 | H[Aib]EGTFTSDVSK([AEEA-AEEA-γGlu-13‑carboxytridecanoyl])YLEGQAAK([AEEA-AEEA-γGlu-13‑carboxytridecanoyl])EFIAWLVQGRG [Comparative compound of Example 22a: Compound of Example 141, Chem. 189, in WO 2012/062803] | 174 | 48400 | 1140
9 | HXEGTFTSDVSSYLEGQAAKEFIAWLVRGRK (not fully specified; Aib at 8; eps-amino of Lys26 and Lys37 each acylated with 10-(4-carboxyphenoxy)decanoyl via the gGlu-2xOEG linker (as Example 1, only the linker differs)) [Comparative compound of Example 1a: Compound of Example 2, Chem. 21, in WO 2011/080103] | – | 2270 | –
10 | XXEGTFTSDVSSYLEGQAAKEFIAWLVRGRK (Imp (imidazopropionyl, des-amino histidine) at 7; Aib at 8; eps-amino of Lys26 and Lys37 each acylated with 12-(4-carboxyphenoxy)dodecanoyl-gGlu-Ser-Gly-Ser-eps-Lys) | 9.4 | 180 | –
11 | XXEGTFTSDVSSYLEGQAAKEFIAWLVRGRK (Imp (imidazopropionyl, des-amino histidine) at 7; Aib at 8; eps-amino of Lys26 and Lys37 each acylated with 12-(4-carboxyphenoxy)dodecanoyl-gGlu-Ser-Ser-Gly-Ser-Ser-Gly) | 5.8 | 530 | 446
12 | HXEGTFTSDVSSYLEGQAAKEFIAHLVQGRK (Aib at 8; eps-amino of Lys26 and Lys37 each acylated with 10-(4-carboxyphenoxy)decanoyl-gGlu-Ser-Ser-Gly-Ser-Ser-Gly) | 23 | 8990 | 116
13 | HXEGTFTSDVSSYLEGQAAKEFIAWLVRGRK (Aib at 8; eps-amino of Lys26 and Lys37 each acylated with 12-(4-carboxyphenoxy)dodecanoyl-gGlu-Ser-Gly-Ser-eps-Lys) | 5 | 270 | 238
